The target in this assay is anaphase-promoting complex/cyclosome (APC/C), human (human (endogenous in HeLa)) (UniProt Q9H1A4). As to the kind of experiment: cryo-EM structure.
Chain of UniProt Q9H1A4 (Q9H1A4 whole entry, looked up, one chain of several): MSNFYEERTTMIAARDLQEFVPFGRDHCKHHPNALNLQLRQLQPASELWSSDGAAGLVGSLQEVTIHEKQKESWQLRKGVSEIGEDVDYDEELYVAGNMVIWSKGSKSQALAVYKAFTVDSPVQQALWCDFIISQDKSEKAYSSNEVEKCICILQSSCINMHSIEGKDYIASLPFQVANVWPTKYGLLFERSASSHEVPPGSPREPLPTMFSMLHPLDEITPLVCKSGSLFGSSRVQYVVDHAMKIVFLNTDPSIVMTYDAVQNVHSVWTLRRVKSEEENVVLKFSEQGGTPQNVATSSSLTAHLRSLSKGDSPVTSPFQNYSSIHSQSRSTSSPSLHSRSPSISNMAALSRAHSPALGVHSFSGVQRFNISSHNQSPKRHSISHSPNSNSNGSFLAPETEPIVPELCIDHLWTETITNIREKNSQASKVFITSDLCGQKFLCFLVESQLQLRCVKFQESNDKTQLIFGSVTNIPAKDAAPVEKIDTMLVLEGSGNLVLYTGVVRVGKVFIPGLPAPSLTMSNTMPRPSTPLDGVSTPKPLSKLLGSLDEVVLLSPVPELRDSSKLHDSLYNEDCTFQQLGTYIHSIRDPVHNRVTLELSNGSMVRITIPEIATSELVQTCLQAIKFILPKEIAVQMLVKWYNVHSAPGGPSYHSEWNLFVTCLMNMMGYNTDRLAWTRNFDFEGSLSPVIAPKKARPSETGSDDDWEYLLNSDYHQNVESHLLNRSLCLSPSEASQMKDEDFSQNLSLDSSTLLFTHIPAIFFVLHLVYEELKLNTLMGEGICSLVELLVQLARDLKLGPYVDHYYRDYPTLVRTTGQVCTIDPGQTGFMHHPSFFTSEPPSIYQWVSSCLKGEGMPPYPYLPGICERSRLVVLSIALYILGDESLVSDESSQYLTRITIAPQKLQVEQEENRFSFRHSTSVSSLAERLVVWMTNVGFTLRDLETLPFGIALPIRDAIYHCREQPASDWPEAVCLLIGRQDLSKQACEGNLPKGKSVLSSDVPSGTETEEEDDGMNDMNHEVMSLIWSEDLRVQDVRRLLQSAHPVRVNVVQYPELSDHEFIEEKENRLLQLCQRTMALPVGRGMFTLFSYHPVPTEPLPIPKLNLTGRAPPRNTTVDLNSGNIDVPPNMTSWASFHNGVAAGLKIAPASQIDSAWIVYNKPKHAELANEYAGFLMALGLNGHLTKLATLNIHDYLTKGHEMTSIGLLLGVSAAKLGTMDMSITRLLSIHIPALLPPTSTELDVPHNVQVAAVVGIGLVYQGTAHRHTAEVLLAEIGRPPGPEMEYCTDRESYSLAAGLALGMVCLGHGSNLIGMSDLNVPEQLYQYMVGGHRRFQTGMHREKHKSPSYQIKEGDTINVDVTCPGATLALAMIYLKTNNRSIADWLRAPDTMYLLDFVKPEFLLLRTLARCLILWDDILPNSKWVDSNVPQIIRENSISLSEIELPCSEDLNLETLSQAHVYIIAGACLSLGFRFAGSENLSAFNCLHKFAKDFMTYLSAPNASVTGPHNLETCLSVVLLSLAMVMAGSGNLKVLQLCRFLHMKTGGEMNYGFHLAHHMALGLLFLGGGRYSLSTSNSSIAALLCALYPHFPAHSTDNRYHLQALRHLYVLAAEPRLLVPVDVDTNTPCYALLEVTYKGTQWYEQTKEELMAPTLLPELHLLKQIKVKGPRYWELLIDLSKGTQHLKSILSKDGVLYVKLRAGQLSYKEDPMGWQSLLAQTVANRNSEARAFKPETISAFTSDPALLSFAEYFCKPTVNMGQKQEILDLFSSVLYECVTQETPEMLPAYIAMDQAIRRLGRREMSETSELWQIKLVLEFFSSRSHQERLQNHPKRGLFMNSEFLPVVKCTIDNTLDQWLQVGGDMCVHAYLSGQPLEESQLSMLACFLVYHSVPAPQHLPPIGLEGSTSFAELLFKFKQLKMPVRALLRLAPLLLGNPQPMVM

“recombinant Cdc20 (from UniProt Q12834 1-499) (natural protein)” displayed a percent of APC/C molecules with the additional Cdc20 mass of 30%.
